Patent publication US20250270584A1, “Gene editing to provide insect resistance in crops” (The Regents of the University of California, priority 2022, published 2025)

Target: 6His-CaM7 (Arabidopsis thaliana), P59220
Assay: ITC at 25 C, peptide titrated into 6His-CaM7, 1 mM Ca2+

- stoichiometry (peptide per CaM7): 1
Binder: DQQQNHDSSSMRSTRLQRFLSL (modifications not checked) [CBD peptide]
